Results as given in article PMC9935901 (2023).

How the values were obtained:
[1] = target: Cell-penetrating FaP3 (CP-FaP3); assay: SPR
[2] = target: Cell-penetrating FaP2 (CP-FaP2); assay: SPR

B1: β-catenin (surface plasmon resonance) (natural protein)
chain: MATQADLMELDMAMEPDRKAAVSHWQQQSYLDSGIHSGATTTAPSLSGKGNPEEEDVDTSQVLYEWEQGFSQSFTQEQVADIDGQYAMTRAQRVRAAMFPETLDEGMQIPSTQFDAAHPTNVQRLAEPSQMLKHAVVNLINYQDDAELATRAIPELTKLLNDEDQVVVNKAAVMVHQLSKKEASRHAIMRSPQMVSAIVRTMQNTNDVETARCTAGTLHNLSHHREGLLAIFKSGGIPALVKMLGSPVDSVLFYAITTLHNLLLHQEGAKMAVRLAGGLQKMVALLNKTNVKFLAITTDCLQILAYGNQESKLIILASGGPQALVNIMRTYTYEKLLWTTSRVLKVLSVCSSNKPAIVEAGGMQALGLHLTDPSQRLVQNCLWTLRNLSDAATKQEGMEGLLGTLVQLLGSDDINVVTCAAGILSNLTCNNYKNKMMVCQVGGIEALVRTVLRAGDREDITEPAICALRHLTSRHQEAEMAQNAVRLHYGLPVVVKLLHPPSHWPLIKATVGLIRNLALCPANHAPLREQGAIPRLVQLLVRAHQDTQRRTSMGGTQQQFVEGVRMEEIVEGCTGALHILARDVHNRIVIRGLNTIPLFVQLLYSPIENIQRVAAGVLCELAQDKEAAEAIEAEGATAPLTELLHSRNEGVATYAAAVLFRMSEDKPQDYKKRLSVELTSSLFRTEPMAWNETADLGLDIGAQGEPLGYRQDDPSYRSFHSGGYGQDALGMDPMMEHEMGGHHPGADYPVDGLPDLGHAQDLMDGLPPGDSNQLAWFDTDL
[1]
  Kd: 61.9 nM
[2]
  Kd: 194 nM
